Reference: US20240174744A1 (SCIRHOM, published 2024)
Where a chain is given by its changes, count along the chain named.

T1: human iRhom1, endogenously expressed on RH-30 cells (human, UniProt Q96CC6 1-855)
T1 construct: RH-30 cells are described as endogenously negative for iRhom2 but endogenously expressing iRhom1; also called NP_071895.3
T1 sequence: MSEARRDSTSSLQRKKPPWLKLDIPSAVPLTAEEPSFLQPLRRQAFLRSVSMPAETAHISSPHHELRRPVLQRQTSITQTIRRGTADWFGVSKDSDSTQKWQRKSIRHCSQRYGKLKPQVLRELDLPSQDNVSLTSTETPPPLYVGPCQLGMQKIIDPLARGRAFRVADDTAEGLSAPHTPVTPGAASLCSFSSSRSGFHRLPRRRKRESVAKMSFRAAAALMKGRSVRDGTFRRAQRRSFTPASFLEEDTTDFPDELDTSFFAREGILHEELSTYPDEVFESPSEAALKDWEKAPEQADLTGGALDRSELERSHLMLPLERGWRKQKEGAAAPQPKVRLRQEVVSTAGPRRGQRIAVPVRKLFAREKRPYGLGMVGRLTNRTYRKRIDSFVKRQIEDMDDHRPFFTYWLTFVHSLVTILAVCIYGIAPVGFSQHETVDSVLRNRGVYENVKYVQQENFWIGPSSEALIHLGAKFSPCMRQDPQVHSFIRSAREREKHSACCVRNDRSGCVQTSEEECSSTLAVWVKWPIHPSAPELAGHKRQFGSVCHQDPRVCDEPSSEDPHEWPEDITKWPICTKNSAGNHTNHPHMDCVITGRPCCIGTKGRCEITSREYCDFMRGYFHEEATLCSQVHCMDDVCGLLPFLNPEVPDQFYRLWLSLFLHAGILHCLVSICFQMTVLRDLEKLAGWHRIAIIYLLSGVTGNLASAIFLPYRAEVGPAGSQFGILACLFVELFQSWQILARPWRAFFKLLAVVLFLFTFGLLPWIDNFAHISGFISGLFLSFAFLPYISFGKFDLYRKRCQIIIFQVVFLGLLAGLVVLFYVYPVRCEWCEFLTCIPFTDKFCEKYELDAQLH

B1: antibody 22 (antibody, V domains shown)
VH: QVTLKESGPGILQPSQTLSLTCSFSGFSLSTFGMGVGWIRQPSGKGLEWLAHIWWDDEKYYNSALKSRLTISKATSKNQVFLKIANVDTADTATYYCARISNYGSNYWYFNVWGTGTTVTVSS
VL: QVVLTQSPALMSASPGEKVTMTCSAGSSVSYMYWYQQKPGSSPRVLIYDTSNLASGVPARFTGSGSGTSYSLTISRMEAEDAATYYCQQWNSYPLTFGAGTKLELK
notes: Mouse IgG, kappa light chain; also called clone #22; m22
B2: antibody 42 (antibody, V domains shown)
VH: B1 VH with F24L, M34R, S63P, A74D, K83R, S101Q, N111D
VL: LIVLTQSPAIMSASPGEKVTMTCGATSRISYMFWYQQKPGSSPRVLIYDTSNLASGVPVRFSGSGSGTSYSLTISRVEAEDVATYYCQQWNSYPLTFGAGTKLELK
notes: Mouse IgG, kappa light chain; also called clone #42; m42

Target: T1, human iRhom1, endogenously expressed on …
Test: FACS, RH-30 cells (endogenous iRhom1, no iRhom2)
Method: In brief, human RPMI-8226 cells (Deutsche Sammlung von Mikroorganismen und Zellkulturen, Germany), THP-1 cells (American Type Culture Collection, USA) and RH-30 cells (Deutsche Sammlung von Mikroorganismen und Zellkulturen, Germany) were harvested with 10 mM EDTA in PBS, washed and resuspended in FACS buffer (PBS, 3% FBS, 0.05% sodium azide), and seeded in Nunc U-bottom 96-well plates (Thermo Fisher Scientific, USA) at approximately 2×10⁵ cells per well. In order to pellet cells and remove supernatants, the plates were centrifuged at 1,500 rpm and 4° C. for 3 minutes. For primary staining, cells were resuspended in 100 μl per well of either FACS buffer alone (controls), a 1:60 dilution of the hybridoma supernatant, the primary material leading to the antibodies 3, 16, 22 and 42 of the present disclosure in FACS buffer or 3 μg/ml of the antibodies 16, 22 and 42 of the present disclosure in FACS buffer and incubated on ice for 1 hour. Afterwards, plates were centrifuged at 1,500 rpm and 4° C. for 3 minutes and washed twice with 200 μl per well of FACS buffer. […] Finally, cells were resuspended in 150 μl per well of FACS buffer and analyzed using a BD Accuri™ C6 Plus flow cytometer (Becton Dickinson, Germany).

Row | Binder | binding result
1 | B1 | no binding (tested: 3 µg/ml)
2 | B2 | no binding (tested: 3 µg/ml)
